# Assay: soluble on expression in E. coli; label from the status in PepcDB or PDB records
row,Sequence,soluble on expression in E. coli
1,MGSDKIHHHHHHMIDLSLLPPPDVVESVDFEELYQETLGIFREFMKDQWTAALESDPVVKLMEVMAYREMLTRARVNAAAKASLLAFAKGNDLVNRAADYGVEKLVIRPADPDAVPPVEAVMEGDEALRYRTRLSLEALSVAGSSGAYEYHGLSASAELTNVSVDSPRFVEAELTPEVRAQLPAGAIVVVCDYDAGLANPLPGDVSLAILPSLSSTTPVAQLVAKVKAALSAEEVRPITDRPRVAAGVPTEFKVEAELQIEEGPDPDVVKATARAGLNAAIAEARRLQGQLPLSAIYAALHVTGIRSVTLKHPAAGVVCDKRHYPSCTSVTLTSKVVT,not soluble
2,MGSDKIHHHHHHMIEHFNPWWKGREGIEEDEDYRKWIGSEVRWVPEVIKKISLEPFSLNIIFGPRQVGKTTLLKLIVKKLLDEGKNPRSIFYLRCDYISDYKELMNVIDEYLEIKETEGIKSSYILLDEVTFPKEWFRAIKLYIDMGKFRNDVLILTGSTSMYTKGEVETFPGRRGKGKDAVMLPLTFREFIKIASPKLHSVLPRINSLNKVEECLKAIPFIEELNSLFKLYLISGGFPRAVKDLLKHNKVSEETYETYISWMRGDILKLGKSEEVARRIMKTIIKKLPSPVSWHGIAKEIDIGSHKTVFSYIELFERMFLIRVLPYIDPDKLEADFKREKKVHLIDPFLYHLVSRWTLTEEPSEDKIVESVVATHVARRYEVGYWRDGREIDVVTREGVGIEVKWSDNVKVSPVKVGKIRKVITLSKSKFSRDPLVIPVSVFLSCI,not soluble
3,MGSDKIHHHHHHMIELCEVTKTYPIYHGHAQRTILDRINLRVGKGQKWGILGRNGAGKSTLIRLISGAERPNTGNIVRNMTVSWPLAFGGAFQGSLTGRDNTRLICRAYGVDFDKTITMVENFAELGSYLWEPVKSYSSGMSARLAFAISISVEFDCFLIDEALAVGDHRFLQKCNVELFENRGDRAMIIVSHQTNIIRTHCDHAAVLENGHLTVHESVDSAIAAYEAL,not soluble
4,MGSDKIHHHHHHMIENLNGIHETVKYKEYSNVKLFINAEAEDYPIHWHTPMEIIMPLEGGYTVQIGDDLVHLNENDIIFIASGVKHRLIAPDTGKRLILQIEWSAVSKIKELNSILTLIAPAITLTPETSGDIHSNIRKLLLDISNEYQTDSFLSEAVIYSKILEVLVLIGRHHTASSCHFNVGRHKQQEYLERFLSICEYIDTHCTEDITLDEIAKIAGFSKYHFTRLFKQFTNNTFYKYLNQKRIELALTLLADPNISVTETAMQSGFANPSTFIRVFKTEKGCTPTEFRKMFIG,not soluble
5,MGSDKIHHHHHHMIGDEPIRIRQLQALNILAESGTMSLTAKAMNISQPAVSRLLSDLSKELGYPLFSRSGRRLTLTREAQYLLPEIQRIFGAMGQIRNLRQNIQDGTSGHLKIACLPGFSTSHLPGVVADFLAARPKTTLTIEPDRPERILDWVIGEQYDCGITDGFRSHHALDSKTIPIRCVCIFPEGHPLEAKSVIHPEDLAGERIAHDRFGSEFYLRLRDILDAEGIAMDNFIETRQFTCACELVSKGVCVSVVSELDAQEYIGKGVSFRPFSANITHQLSLVWPRHTPTSILTLEFLGLFEKSLEPYAMTET,not soluble
6,MGSDKIHHHHHHMIIDAHIHCSGDEKVDDVLQALDQAQVDKAVVLAPFLSGPYSMHDSASLRSANQYLSRLIGHHTDRLIGFAVINPSLEGACQDLVSAHELGLHGLKMVPAGWYPYDDCARDVYETAARLKIPILFHSGIFIDGKSGRFCRPSFYEAIRDYPDLRVTLAHLGWPWSDEANAVGLIDLINGVPPDNSQFRFDISFGAPPVYRLEVLRKAIDVLTPDLLQFGSDVFLPCSADLIKSRIDEVLMLLERLEVDKSSRDRIMGGTAAAWLGIN,not soluble
7,MGSDKIHHHHHHMIIDRLFDSVEKKGHVCLGLDTDITYVPEEFCKKFNSIEDAIFNFNKKIIDATLDVVSCYKVQIAYYEAYGLKGLLAYKRTLEYLREKKAIAIADIKRGDIAKTAEMYAKAHFEGDFEADFVTLNPYMGLDGIEPYMPYIEKMEKGLFILLRTSNKGAYDIQYIKTQGGKNVYDEVGEKIYDLGQKATGRSKYSSIGAVVGCTHVEEGVEIRNKFKNMFFLIPGYGAQGGTAKEVSLYLREGNGGVVNSSRGILLAYKKEENGEKIFDECARLAAINMRDEIRKTL,not soluble
8,MGSDKIHHHHHHMIIMRFLIKVKPEERKFRVPYNHQYFLQGLIYNRIKLTNPRLSTFLHETKGPKLFTYSLFMTERREHPKGLPYFLGYRRGFFYFSTCIPEIAEAFITGLFREPEITLWGEKFYLEEVKTLKEPKKFSGSTFITLSPIAVTMEKGGKRYDVSPLEEEFYALIRENLKDKYVMIKGEKPPDDFEMEIIAAKPKRFEVKPGIYQMAWHLVFRAYGDDELIRVGYVVGFGEKNSLGFGMVKVDEQRKRRKNIGSFQESMSFNENRELETGT,not soluble
9,MGSDKIHHHHHHMIKICSVAFLSLLLSASSLFAQTKTFAGADYSQGIVFVMENNQMVWKHKAPDSNDLWILPNGNILFTTGHGVLEMTRQNDTIFHYESKSPVFACQRLKNGNTFVGECVTGRMLEISPKGKIVKETCILPKGVKDGGFAFMRNARRLDNGHFLVAHYGDQCVKEYDANGKVVWKLDVPGGPHSLTRLPNGHTLIAVADKDQNPRLIEVTPEGKTIWEISNADIPGKPLKFLGGFQYFSDGRFLITNWTGHVNPKEKVHLLLVDRQKNVLYSLENTPELQTMSSVYSTDKPAGVASYH,not soluble
10,MGSDKIHHHHHHMILKTKLFGKVYQFTSVKEVLAKANEEKSGDKLAGVAANSAEERVAAKVVLSELSLNDLFNNPVVDYDEDEVTRIIIDQVNMRIFESIKHWTVAELREFILSSETTDFDIKRISRGLTSEMIAAVCKLMSNMDLIVGAKKINIEKTANTTIGRPGTFSNRLQPNHPTDNVDGIMASVMEGLSYGAGDALIGLNPVDDSTESVKRILNKFEEFRSEWEIPTQTCVLAHVTTQMEAMRQGAPTGLVFQSIAGSEKGNTAFGLNAEILAEAQDLALHSGQAAGPNVMYFETGQGSELSSEANFGADQVTMEARCYGLAKKFDPYIVNTVVGFIGPEYLYDSKQVIRAGLEDHFMGKLTGISMGCDVCYTNHMKADQNDMENLAMLLATAGCTYIMGIPHGDDVMLNYQTTGFHETATIRETLGLRPIKEFEEWMEKMGLMENGKLTSRAGDASVFIK,not soluble
11,MGSDKIHHHHHHMILSDPRFVALSNWLYQYFGDKVAINLICGDASFRRYFRLHHQGIDYIVSDSPIDLVPIAPFLAMAKAYQHAGLLVPEVLATCNDYGFVLQTDVGELQLLSVLNKDNVTDYYKQALNLLPVIATVTETDNGPLADYDDTFVARELAIFVDWLLKEHLDYVLTDNEQQMIATTFSALTDNVLAQPKVGMHRDYHSRNLLINDQALAVIDFQDAVHGPVTYDAVSLLRDCYVRWPDDIVNHLMRYHYQLAIAHQLIDENVDFATYTKWFDLMGLQRHIKAAGIFARLYHRDGKRGYLADIPLTLQYVADIGIKYPQIADFSLWIHKVILPLVNHKNTHEVVSEA,not soluble
12,MGSDKIHHHHHHMILSEVRIHNFRNIASTSLILNPNFNCITGPNGGGKTSLLEALYMLSCAHSFRSREITPIISYGQNQLNVFAHAYDESTISVQKSITDGTQIKLNNQFCCTTSQLAYALPCQVIYSDIFQIIDAGPSVRRSLLDWGLFHVKHDYLKIWKDYKRILSQRNALLKSRATYDHFIPWDQQLSQLANQLDKARNDYFLQWQPKFYQVLSDLTNISCTVEYYKGWDRKNAGQNMEELLQKSFDSDRKKLYTQYGPHQADLIISTEQYRVKHTLSRGQQKIILIALKLAQGQLLDKDCLYLIDDLAAELDDYHQRNLIKYLTQQKGQFVITNLINNNNYDILPIDSGLFEVNCGAIKNL,not soluble
13,MGSDKIHHHHHHMILSVSRRTDIPAFYSEWFFNRLKEGFVYVINPFNERKVSKVELNKETVDLFVFWTKDAEPMLKRLDELNEFKYYFQFTITSYRNDVERMTRKKKDIIDTFRILSKKIGKEKIIWRYDPIFLNDFYTKEYHYRWFERFCDKLEGYTDKCIISFLDLYKKTEINTRCLNIHKMDEKSMRQVAKQLSIIANKHNIIIETCSEGIDLSDYGIKKGSCIDKNLISKIIDFGVELKKDNNQRELCGCVKSVDIGQYNTCKHHCLYCYANFNEKLLNDSILKYNPKAPTLAYTLKGDEKITVREMESIKGNKQKQLDLFKNIKQGE,not soluble
14,MGSDKIHHHHHHMINAEPIISKMKNQKINYDKVLKKLIGQWEREAIRPKILLHSCCAPCSTYTLEFLTQYADIAIYFANSNIHPKNEYLRRAKVQEQFVEDFNRKTGANVKYIEAPYEPHKFVKMVKDKELADEKEGGLRCTACFEMRLDIVAKAAVEHGYDYFGSAITLSPKKNAQLINELGMDVQKIYDVNYLPSDFKKSKGYERSIEMCNDYNIFRQCYCGCVFAAMQQGIDFKTVNKEAKAFLEQYPD,not soluble
15,MGSDKIHHHHHHMINSTFLTNRVFSTWYYFSLLLYKEKGCDLVKTPKIVVLGAGYGGMITTVRLQKALSVNEAEITLVNNNSYHYQATWLHESAAGTLQDEKICLDIQDVIDTNKVNFVQDTVVEIKAAEKRIILKDGELEYDYLVIGLGFESETFGITGLKEHAFSIANINATRQIREHMEASFAKYADEKRDELVTIVVGGAGFTGIEYVGELANRVPELCKQYNVPREKARIICVEAAPTALPGFDPALVEYAVKQLEKKGVEFRIGTAIKEATEEGIIVANGDDTELIKSETVVWAAGVRGNGIVEESGFEAMRGRVKVDEYMHAPGYEDVFMVGDAALIINEEINRPYPPTAQIAIQQGYNIAHNLTVLVRGKGEMKKFVFDNKGSVCSLGHDDAMGVVMGKKLTGWKASFMKKVIDNRYLFLLGGPLLVLKKGKLKFF,not soluble
16,MGSDKIHHHHHHMIPKNIHLIFLRKDEPFPELFEKCKQEIQVNHPDWNIRLYNKDDAQDILNQDLPEYIEAYNAFYHNVQKADFLRLALVYLYGGFYMDLDMLSLKPLDELRKYNLVLGEEKIVCQAEQEALNLRYRLRIANYMFGGIPKHPFLHRIMDEMAERATIILKSQQEILDITGPGLLTDTYWDNYGMYTDITLLRNTDKRCRQPYHNEISCHFGDYAAHLHAGTWRTGI,not soluble
17,MGSDKIHHHHHHMIQPVSCICPIAAKLITSRPAQKLLPAPESTTARASEAATSLAAAITAASMCLSTAFILSARVRVTWATWSRISTDTRALSSAITAPPSGCRLNVACSLPRFGRAFQPDARARRTGSFPDRDLISPDLPLPACARAARSWAMTDSRQTPLAQSLPASVPFVGPETHERQRGAPFVARLGANENLFGVSPKAIAAMQASAAEIWKYGDAESYELRAALSALHGIAPEHIMVGEGIDGLLGNLVRLYVGAGDAVVTSLGAYPTFNYHVAGFGGDLHTVPYKDDHEDIKALMAKAHEVGAKLVYLANPDNPMGSWHRGADIVAALDDLPEGSLLVLDEAYVECAPKGTAAPVDVTDPRVIRMRTLSKAYGMAGARVGYAMGAVEVISAFHKVRNHFGMNRCAQIGATEAIKDQAWLAHVQAEIATAREEISRIARENGLTPLPSATNFVAIDCGRDGAFAKAVLEALVARDIFVRMPFAAPQNRCIRVSCGPERERRAFAEALPLALKDAQNGA,not soluble
18,MGSDKIHHHHHHMIRFKDIHIPKPCSVEYDTLPGDDIKRFCGSCEKYVYDFRGKDQAYLNAVFSATGKACGIYYADQIQASPALKTNRPFYSSFVSKLIATSLFLRIFLTSNNTKAHRTEPQTIVQQTTDSTELKTIHTGNDKAMYRVTVDIYKNDTLEESFLLENQNSIYLPDSIKPLDKIKVVVSTVRYNIPTSKNRTRSGKYMSNKTYYTTEQKKTYHFNFAGCNKIIIKIRHTKFIHIFLKKRTAIMGLVCPSDFW,not soluble
